# Data taken from the DeepSol protein solubility set.
# Assay: soluble on expression in E. coli; label from the status in PepcDB or PDB records
row,Sequence,soluble on expression in E. coli
1,MSDKNQIAARASLIEQLMSKRNFEDLGNHLTELETIYVTKEHLQETDVVRAVYRVLKNCPSVALKKKAKCLLSKWKAVYKQTHSKARNSPKLFPVRGNKEENSGPSHDPSQNETLGICSSNSLSSQDVAKLSEMIVPENRAIQLKPKEEHFGDGDPESTGKRSSELLDPTTPMRTKCIELLYAALTSSSTDQPKADLWQNFAREIEEHVFTLYSKNIKKYKTCIRSKVANLKNPRNSHLQQNLLSGTTSPREFAEMTVMEMANKELKQLRASYTESCIQEHYLPQVIDGTQTNKIKCRRCEKYNCKVTVIDRGTLFLPSWVRNSNPDEQMMTYVICNECGEQWYHSKWVCW,soluble
2,MNLDKPLLPGQVIGIIGGGHLAKMMALSAREMGFRVGVLDPQIDCPAAQVADWQLLGAYNDPEALEKLAKRAQVITYEFEHADVDALTAIQHLANIPQGTDILAITQDRLMEKSFLEDNNIVIAPYATIVSPTDIQEAIDGIGYPCILKNTRGEGRYVLHSTSDLAPSMNLLREGTCVLEAWIPYEKELSVLISGNGRGEFATFPVVETIKKERKLHETIAPARIDDEVSGELQRIAKVIAKAVGLVGTLSIEMFYTETGGIYVNKILPRPEDAGNFSIDACSFSQYDTHIRGLCNWPMPTIQLLSEAVTVNVLGNEAYETMDIINEHPDWHFHYYGHSEAKAQRAMGHITILTKEIDETLEEIKETKIWS,not soluble
3,GSHMSKDATKEISAPTDAKERSKAIETAMSQIEKAFGKGSIMKLGAESKLDVQVVSTGSLSLDLALGVGGIPRGRITEIYGPESGGKTTLALAIVAQAQKAGGTCAFIDAEHALDPVYARALGVNTDELLVSQPDNGEQALEIMELLVRSGAIDVVVVDSVAALTPRAEIEGDMGDSLPGLQARLMSQALRKLTAILSKTGTAAIFINQVREKIGVMYGNPETTTGGRALKFYASVRLDVRKIGQPTKVGNDAVANTVKIKTVKNKVAAPFKEVELALVYGKGFDQLSDLVGLAADMDIIKKAGSFYSYGDERIGQGKEKTIAYIAERPEMEQEIRDRVMAAIRAGNAGEAPALAPAPAAPEAAEA,soluble
4,MYKHILVPVDLNEQGFADKAVQLAVWHAKHSNAEIHLLNVLPGIHMSMVATYFPKDAAAQMKNDVRAQLKAFAEKHIAEEVVYKLHIAEGKPYATILDYAERLGADLIVMPSHKRSRIDKVMLGSVASKVVENSPINVMVVKPQG,not soluble
5,MTVRDKREKMTATREEFADAQQEFAAYAADFAADIETKRDVSSLLDAIDALRAEIEETGDAFDAYNQEFAAEVSHLQTEIGEQREALREMRDIFDAYAETFESDVEAKQDVSDLLAAIEDLRAEMDTTHEAFDAYTNEFVTDVAALRDVSDLLAAIEELQLEFGAVQAEFDDYTDDFDADIERFRNAVAEQRDAVAEYREEFHGVEVQAMLNAIADFQQEIDDFRAEFETTEESFDAFARDFYGAEASDSGDALETEAEAPDAGVPEQPAEESVETENEEAELEVVETETDTEDTDTGSIKEVEEELIIEEEIDTEDTREAENAVEEDEETEADEDAPEGMIQCLVCGEYYQAITEPHLQTHDMTIQEYREEYGEDMPLRPDDKA,not soluble
6,MGSDKIHHHHHHMEKLQESMYQLIVETSTNLPKDVRRAIQQAKERENAGTRSAMALGTITNNIKMADDNISPICQDTGMPTFKIYTPVGVNQLKLKEAIYNALERATKDGKLRPNSVDSLFGDNSGNNLGPGTPVIKFEQWEKDYIDARLILKGGGCENKNIQYSLPCELEGLGRAGRDLEGIRKCLLHAVYQAQGQGCSAGVIGVGIGGDRTSGYELAKNQLFRTLDDVNPIPELQQLEEYVLENANKLGIGTMGFGGETTLLGCKIGVYNRLPASFYVSVAYNCWAYRRLGVTIHPETGEIMDWLYQEGEDTLEQEVQEKTEQREIVLQAPITEEQIRELRVGDVVTINGMMYTGRDAIHKHLMDNDCPVDLNGQIIYHCGPVVVKDENDNWQIKAAGPTTSIREEPYQGDIMKKFGIRAVIGKGGMGAKTLAALEEHGGVYLNAIGGAAQYYAECIKEVKDVDFLQFGIPEAMWHLRIDGFKAVVTMDSHGNSLHADVDKTSLEKLASFKEPVFK,not soluble
7,GMTGKISALDLASGELSEPTKAYFAKCEEKLGLVPNVLKAYAFDDKKLRAFTDIYNDLMLGESGLSKLDREMIAVAVSSINHCYYCLTAHGAAVRQLSGDPALGEMLVMNFRAADLSPRQTAMLEFAVKLTEEPAKIVEADRAALRKAGFSDRDIWDIASTAAFFNMSNRVAAAIDMRPNDEYHAMAR,soluble
8,MSLTAPRLRILSVEVRERMMPFVRPFRFGPSVVEAAPQAFVRIELEVEGAGRAVGQAAEMMMPRWFDKAPHKSPEQTVDDLRRVLLHAAALYADAPWSTAYGLSADAAAMQLGWAEGRGIPALAAHFGPALLDKAVVDALLRALSLTFPEGLSRNVMGLDARNARDLSPEQIPALLASLTPVPAVAVRHTIGLLDPLEGPHGLSAEIAAARLRFFKIKIGGDLAADLDRLAAITALLTHLAPDFRATLDANEQYDPERLCQLAAGLDTPALRPLKARLLYIEQPFDRTETFTRPLPPALDGIPVIIDEADGGLDAFPRAIALGYRGVSSKACKGLYKSILNAVRVQAGEGTFLTAEDLTCQPGLGLQQDLALVATLGLTHGERNGHHYVAGFGPAPEEEAGAFAAAHPDLYRLTDAGAALDVSRGVLATASLLSAPGFAGRAEPDWASLAPVTEGHHHHHH,not soluble
9,GPGSMWFGTKNQRKAPQIPFPKRNKTKQRRASRRVRARVRTGNKPEHAIGGTGCASSRMRRGLDGSNTAAPGCDVSSHLSTPVHRPLRCAQPLFVFKSTSLRASLRNTCHHARHRARPYAHGSVSPPLSPSLAYFPQRSKGSRTPAYRWDCTVTRRSWSAHGSASTLVCARVRRSAPFTIGRANDRQRSAAEGDDARTPAHLTTLSTRSQQPKQAKQNTGSSMNSAGTGAPAKAAGVSASSLSMPKHKLVLLGDQSVGKTSIITRFMYDTFDQQYQPTIGIDFFSKTVHLDDDRDVRLHLWDTAGQERFHSLIPSYIRNSAATVVVYDITSRPTFFSAFKWIDEVRSESGADVVIMLVGNKVDQASERREVSAEEAMKKASECSVLFMEVSAKHGTNIKHMFRQVAAALPAPASTGGGAGVTGATSSSAGGVGAAGASGSGASAPGISAGQFGGIVRSPFLITPSAMQAASNGTGGAGEADGANPNAQGGRGGACC,not soluble
10,MKRLLKEKEGIRLEFKEARTALPGNLFETICSMLNHDGGDIVLGVSDDGTVAGVEHAKMETMVSNLVNLSNNPQKLDPPFILFPQTYEIDGKWLIHIQVPSSSQVHKTSGIVFNRSNDGDFRVTQPQQIAEIYNRKRMHYTEGIIYPGLRFEDFKVDLFPKVRNLIRSNNPNHPWLALTDQQMLEKAGLWKRDINSTQEGYTLAAALLLGKDEVIQQLLPFFKIDALVRIEDIYRYDDREYIQTNLIEAYEQLMTFVGKHLPDKFYMEGDQRVSLRNKIFREIAANLIVHREYMNAYPCTFIIYSDRVETENANNPHGEGPIDPEHFAPFPKNPTIIKFFMQLGRVDELGSGILNVNRFIKEYANGGSSQFIEGNVFKMIIPVAGEKIEGAIEGAIEGAIEGAIEGATKKVKDKLAILLKAIAENEGKKVPDYVVITKIPRSSIERYIKQLREANLIDFRDKATLIGGYYLTSKMKQKLKEKSLEHHHHHH,not soluble
11,MGSDKIHHHHHHMNLPTASRLQFTPDLNICRILNGMWQVSGAHGRINPQAAIETMFKYLDAGFTTWDLADHYGPAEDFIGEFRCQLIDTRGKDALSKVQAFTKWVPRPGKMTKKLVEENIDISLRRMNVESLDLMQFHWWEYQDKNYLDALKYMAELQTEGKIKHLGLTNFDTENLKLITEAGIKIVSNQVQFSLIDRRPEVNMAEFCQQHDIKLFTYGTLCGSLLSENYLGKPEPRGSDLSTASLKKYKNMIDAWGGWQLFQELLAILKEIANKHKVSISNVAVRYILDQPTVGGVIVGARLGVSEHIEDNAKVFSFSLDADDRDRISAVSRQSRDLYQLIGDCGDEYRR,not soluble
12,VFQSILDEIDVGLHVVDEHGNTIVYNNKMMQIEDMEKHDVLNKNLMDVFMFSKQQDSTLVQALQEGKTIKNVKQSYFNNKGQEITTINHTYPIVQDGKIRGAVEIAKDVT,not soluble
13,METSIFDDVETRIDNNEIIAQQHAEDLFELYLKIQNAEKDSVIDIRKEASADHEEMLCELRNDLSQVMKMGMVNLSMQIIAQERNNRRKVNQHIINIKSKTEEIDKFFQRAISVLGAPPGYPAKKEEKAKTKNYLIQFGEVLLSISTMVTNLEQSLACYELKEVLMNGMISQIRTQISDFNKVIPNFKRILNSENQEIDPDNYEKFVDMKKRLFAMVNCLHLISEKRGEMNRLIEEKMNLSMPQFQNLQISNGT,not soluble
14,RVLNLEEGPDAFGDYAREKLFVRARFAARQVLDSYSHDIPEEFMASLRRRFEHDINADEDDDDAMTPEERRKIQERRFALFNKVRLEALYASQAELLRARSERDVDPMIVDEVLFEIDSQIIAAEKSTR,not soluble
15,MAGFFNKLTGFFTISRQHNPPFEAASKSRRMGGFDPAKKHINKAIEECGDTIVARSRWLYDNESLYGSATEEWVSAAVSDGIKPYPRIEGFQEEKKKLLDLWWQWVDEADYDEDANFYGLQATIAREVFLTGECFVRLHYVDLYGRSGVPFQLQIYPTEMLDLTYNGPAETEGNYIRMGIEFNASGKRVAYHFWEHHPYDDCPANRAFKSQDRIRVPAEMVLHIKERRIAGQLRGSPKITRSMTKIFQLESYDDAELDRKRTAALFAVFITGKESHDAALEENREQTRLPKKPEEAADVDKIYPGSVNMVDGEKQITFSTPVEVGGSYEAFQFRNILKICSALNMPYAVVTGDVTRGNFSNVRTSIIQFRRHVKQWREHIIAFQFNRIVWERFVEMAVLSGRVHLPGWEENPLPWLQCESFAPPLEMIDPNKDISAEKEEIRAGLKTRRMALAERGFDIDSIHAELEEEHTDARARGLSFDTDMAASSGDNQIIDTTDSDPSETYESNQGSEAHKNGE,not soluble
16,VAEKPYLKDPEVAAGYHRVAKRELPEPKIMEVPQRFAAYVRHEGYNRSIRNAWLILKAWASSENRDFSVQYGLHHSNPAWVELDKCRYVACMAIDKPLKVRGVVNQMTIPGGLHAVFRLTGVYGELLPQLSMVLEKWLPNSGFKQRSTPAYVHYHKNHFLSHDEAFELDFYLPISFF,not soluble
17,MLYINSFLDRMGEIIRGEKSVEEADKLLDQKNIFEMFRSDCEEILNLYKSGKAEKEEVQRNFYLLKTYVVSQLSIHFERLKEFAESKGFKIEKKLDPEVINEIALYIDRVEKEV,soluble
18,MTAFQSLKPSTLSREDFVKAFADIYEHSPWVAEKAYELGLDASVDQIETLHQRMSDILLSADHASQLALINAHPDLAGKAAVQGQLTEASTNEQAGAGIHQCTAEEFQRFTELNDAYKAKFKFPFIMAVKGSNRHQILAAFETRIHNSVDTEFKCALAEINKIALFRLLTLLEHHHHHH,not soluble
19,MAHHHHHHMGTLEAQTQGPGSMSAPLAEVDPDIAELLAKELGRQRDTLEMIASENFVPRAVLQAQGSVLTNKYAEGLPGRRYYGGCEHVDVVENLARDRAKALFGAEFANVQPHSGAQANAAVLHALMSPGERLLGLDLANGGHLTHGMRLNFSGKLYENGFYGVDPATHLIDMDAVRATALEFRPKVIIAGWSAYPRVLDFAAFRSIADEVGAKLLVDMAHFAGLVAAGLHPSPVPHADVVSTTVHKTLGGGRSGLIVGKQQYAKAINSAVFPGQQGGPLMHVIAGKAVALKIAATPEFADRQRRTLSGARIIADRLMAPDVAKAGVSVVSGGTDVHLVLVDLRDSPLDGQAAEDLLHEVGITVNRNAVPNDPRPPMVTSGLRIGTPALATRGFGDTEFTEVADIIATALATGSSVDVSALKDRATRLARAFPLYDGLEEWSLVGR,soluble
